These results are taken from publication PMC11381358, “Phosphorylation of the nuclear poly(A) binding protein (PABPN1) during mitosis protects mRNA from hyperadenylation and maintains transcriptome dynamics”.

For this data set, the target named is T1, His-MBP-PABPN1 WT (human, UniProt Q86U42 1-306).
T1 sequence: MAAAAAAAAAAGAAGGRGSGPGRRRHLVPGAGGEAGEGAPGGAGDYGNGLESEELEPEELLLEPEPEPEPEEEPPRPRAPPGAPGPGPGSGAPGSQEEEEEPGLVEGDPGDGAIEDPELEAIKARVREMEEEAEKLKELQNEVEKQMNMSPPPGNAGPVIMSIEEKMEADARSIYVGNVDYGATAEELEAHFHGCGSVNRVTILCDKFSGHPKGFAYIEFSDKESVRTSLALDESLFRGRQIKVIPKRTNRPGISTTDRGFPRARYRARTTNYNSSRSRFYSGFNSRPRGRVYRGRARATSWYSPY
Kind of data set: filter binding; 50 mM Tris-HCl pH 8.0, 100 mM KCl, 5 mM MgCl2, 2 mM EDTA, 10% glycerol, 0.2 mg/ml BSA, 0.01% NP-40, 0.5 mM DTT, 2 U/ul RNase OUT; 500 pM RNA, protein 62.5 nM-4. The following applies: protein: recombinant; tags: N-terminal His-MBP (uncleaved); label: 5'-32P; single strand.

In the case of AAAAAAAAAAAAAAAAAAAAAAAAAAAAAA (ssRNA) [poly(A)30], the binding result is given as “binds”.
